Data: the nanobody polyreactivity screen of Harvey et al. (2022)

assay: yeast display, Sf9 membrane polyspecificity reagent, FACS + sequencing; frameworks hold sequencing errors
Procedure, shortened: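 Nanobodies from a synthetic yeast display library (Saccharomyces cerevisiae BJ5465), induced 36–48 hours with galactose, were stained 1 hour at 4 °C with 10% biotinylated, detergent-solubilized Sf9 membrane reagent, enriched on streptavidin microbeads, then FACS-sorted. Anti-HA (expression) and streptavidin (reagent binding) fluorescence set low and high (top ~1%) gates. Polyreactivity labels come from the gate of origin. Genes were colony-PCR amplified, MiSeq 2 × 250 sequenced and filtered by CDR length.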

Row | Sequence | polyreactivity (PSR sort gate)
1 | QVQLVESGGGLVQAGGSLRLSCAASGSTFPLYVMGWYRQAPGKERELVAAIDWSGGSTYYADSVKGRFTISRDTAKNTVYLQMNSLKPEDTAVYYCAADSPNSWRMDYWGQGTQVTVSS | low polyreactivity
2 | QLQLEESGGGLVQAGGSLRLSCAASGSIFDDYAMGWYRQAPGKERELVAAITSGGSTYYADSVKGRFTISRDNAKNTVYLQLNRLKPEDTAVYYRATRYHWSSSFAPVGAYGYWGQGTQVTVSS | low polyreactivity
3 | QVQLVESGGGLVQAGGSLRISCAASGRTFGYYGMGWSRQAPGKERELVAGITSRGGSTYYADSVKGRFTISRDNAKNTVYLQMNSLKPEDTAVYYCNAQYARKYGFWTAYDYWGQGTQVTVSS | high polyreactivity
4 | QVQLVESGGGLVQAGGSLRLSCAASGSIFRYYAMGWYRQAPGKERELVAVITSSGTSTYYADSVKGRFTISRDNAKNTVYLQMNSLKPEDTAVYYCARRSSGELRYHIYDYWGQGTQVTLSS | low polyreactivity
5 | QVQLVESGGGLVQAGGSLRLSCAASGRIFRYYAMGWYRPAPGKERELVAGISSRGGSTYYADSVKGRFTISRDNAKNTVYLQMNSLKPEDTAVYYCAASPFHTVTPYGVVGRYDYWGQGTQVTVSS | high polyreactivity
6 | QVQLVESGGGLVQAGGSLRLSCAATGRTFRIYAMGWYRQAPGKEREFVAAITWSGGRTYYADSVKGRFTISRDNAKNTVYLQMNSLKPEDTAVYYCAADPTYLRTLRFGSYDYWGQGTQVTVSS | high polyreactivity
7 | QVQLVESGGGLVQAGGSLRLSCAASGIIFTSYVMGWYRQAPGKERELVAAISSDGGSTYYADSVKGRFTISRDNAKNTVYLQMNSLKPEDTAVYYCAVDWLEIGDTGFDYWGQGTQVTVSS | low polyreactivity
8 | QVHLVESGVGLVQAGGSLRLSCAASGFIFYYNAMGWYRQAPGKERELVAAISRTGGSTYYADSVKGRFTISRDNAKNTVYLQMNSLKPEDTAVYYCAAVGSPNRRPSRWEGSWGQGTQVTVSS | high polyreactivity
9 | QVQLVESGGGLVQAGGSLRLSCAASGSIFDIYAMGWYRQAPGKERELVAAISWNGGDTTYADSVKGRFTISRDNAKNTVYLQMNSLKPEDTAVYYCAADLGYWVADYYWGQGTQVTVSS | high polyreactivity
10 | QVHLVESGGCLVQAGGSLRLSGAASGGNFSTYAMGWYRQAPGKERELVSSITERGGSTYYADSVKGRFTISRDNAKNTFDLQMNSLKPEDTAVYYCAADWDASWWLVPTSSYDYWGEGTQVTVSS | low polyreactivity
11 | QVQLVESGGGLVQAGGSLRLSCAASGVTFVDYAMGWYRQAPGKERELVAAITVSGDSTYYADSVKGRFTLSRDNAKNTVYLQMNSLKPEDTAVYYCAADPGYYDGGYWGQGTQVTVSS | low polyreactivity
12 | QVQLVESWGGLVQAGGSLRLSCAASGFTFYGYAMGWYRQAPGKERELVAAISRRSSSTYYADSVKGRFTISRDNAKNTVYLQMNSLKPEDTAVYYCNTVFQLSGYAAGVDYWGQGTQVTVSS | high polyreactivity
13 | QVQLVESGGGLVQAGGSLRLSCAASGFTFKFYAMGWYRQAPGKEREFVAAISHSGGRTYYADSVKGRFTISSDNAKNTVYLQLNILKPEDTAFYYCAAAEGGGLVTYDYWGQGTQVTVSS | low polyreactivity
14 | QVQLVESGGGLVQAGGSLRLSCAASGRIFGTNAMGWYRPAPGKERELVARITISTASTYYADSVKGRFTISRDNAKNTVSLQMNSLKPEDTAVYYCGVRWYIRSRPKVYKYDYWGQGTQVTVSS | high polyreactivity
15 | QVQLVESGGGLVQAGGSLRLSCAASGSIFDWYAMGCYRQAPGKEGELVAAISSGDSTYYADSVKGRFTISRDNAKNTVYLQMNSLKPEDTAVYYCAAVTKLSGIRYNYWGQGTQVTVSS | low polyreactivity
16 | QVQLVESGGGLVQAGGSLRLSCAASGITFIRYAMGWYRQAPGKERELVAVITRSGGRTYYADSVKGRFTISRDNAKNTVYLQMNILKPEDTAVYYCAARAYGYDEYEYWGQGTQVTVSS | high polyreactivity
17 | QVQLVESGGGLVQAGGILRLSCAASGSIFYAYAMGWNRQAPGKEAEFVARISGSGGSTYYADSVKGRFTISRDNAKNTVYLQMNSLKPEDTAVYYCAATRERYKYYKRYYWGQGTQVTVSS | low polyreactivity
18 | QVQLVESGGGLVQAGGSLRLSCAASGQIFYRYAMGWDRQAPGKERELVAAISSGGSTYYADSVKGRFTISRDNAKNTVYLQMNSLKPEDTAVYYCNTGYWYVSLGSYDYYGEYDYWGQGTQVTVSS | high polyreactivity
19 | QVQLVESGGGLVQAGGSLRLSCAASGFTFGSNAMGWYRQAPGKERELVAAISSGDSTHYADSVKGRFTISRDNAQNTVYLQMNSLKPEDTAVYYCNADNILYWSTLDYWGQGTQVTVSS | low polyreactivity
20 | QVQLVESGGGLVQAGGILRLSCAPSGSTFTFYAMGLYRQAPGKERELVAAINSSGGRTYYADSVKGRFTISRDNAKNTVYLQMNSLKPEDTAVYYCAARRPLVRYIMGYWGQGTQVTVSS | high polyreactivity

Row | Sequence | polyreactivity (PSR sort gate)
21 | QVQLVESGGGLFQAGGSLRLSCAASGRIFGSYAMGWYRQAPGKERELVAAIFSAGSTYYADSVKGRFTISRDNAKNTVYLQMNSLKPEDTAVYYCAAGAYWPWGEDYWGQATQVTVSS | high polyreactivity
22 | QVQLVESGGGLVQAGGSLRLSCAASGYSFYYNAMGWYRQAPGKERELVAAISYTGGSTYYADSVKGRFTISRDNAKNTVYLQMNSLKPEDTAVYYCAAEYYTYVSDNYQHYGYWGQGTQVTVSS | low polyreactivity
23 | QVQLVESGGGLVQAGGSLRLSCAASGFTIRRNAMGWYRQAPGKERELVAAISRSGGSTYADSVKGRFTISRDNAKNTVYLQMNSLKPEDTAVYYFASDHSDYRYTYTALIAEFYYWGQGTQVTVSS | low polyreactivity
24 | QVQLVESGGGLVQAGGSLRLSCAASGFIFGLNALGWYRPAPGKERELDAAIRSASSTNYADSVKGRFTISRDNAKNTVFLQMNSLKPEDTAVYYCAAEYVTYQQGFWGYDYWGQGTQVTVSS | low polyreactivity
25 | QVQLVESVGGLVQAGGSLRLSCAASGRTFLRYAMGWYRQAPGKERELVAAISWSGGRTYYADSVKGRFTISRDNAKNTVYLQMNSLKPEDTAVYYCNKVVLYGAHYYYWGQGTQVTVSS | high polyreactivity
26 | QVQLVESGGGLVQAGGSLRLSCAASGITFSVYAMGWYRQAPGTERELVAAISGSAGSTYYADSVKGRFTISRDNAKNTVYLQLNSLKPEDTAVYYCAARLAPKYSPSSYNYWGEGTQVTVSS | high polyreactivity
27 | QVQIVESGGGLFQAGGSLRISCAASGRIFQYYTMGWYRQAPGKERELVATISRRGGTTYYADSVKGRFTISRDNAKNTVYLQMNSLKPEDTAVYYCNADSRTYRYYWSYGYWGQGTQVTVSS | high polyreactivity
28 | QVQLVESCGGLVQAGGSIRLRCAATGSIIYVNPMGWYRQAPWKEREMVAAITGGASTNYADSVKGRFTISRDNAKNTVYLQMNLLKPEDTAVYYCAVDPVGHATRVWTYQYDYWGQGNQVTVSS | low polyreactivity
29 | QVQLVESGGGLVQAGGSLRLSCAASGRTFGSYAMGWYRQAPGKEREFVASISRRGGSTYYADSVKVRFTISRDNAKNTVYLQINSLKPEDTAVYYCAAGVPASWFDYWGQGTQVTVSS | high polyreactivity
30 | QVQLVESGGGLFQAGGSLRLSCAASGRTFCFYTMGWYRQAPGKASELVAAISSGGSTNYADSVKGRFTISRDNAKNTVYLQMNSLKPEDTAVYYCNARFPVCPSEDAVWYYPKFDYWGQGTQVTVSW | low polyreactivity
31 | QVQLVESGGGLVQAGGSLRLSCAASGITLGRYAMGWYRQAPGKERELVAAISWSGGTTYYADSVKGRFTISRDTAKNTVDLQMNSLKPEDTAGYYCTKESPYRQWGWSYYYWGQGTQVTVSS | high polyreactivity
32 | QVQLVESGGGLVQAGGSLRLSCAASGSIFWYNTMGWYRQAPGKERELVAAISYRGGRTYYADSVKGRFTISRDNAKNTVYLQMNSLKPEDTAVYYCNAPRYLGGGQDALGDYWGQGTQVTVSS | high polyreactivity
33 | QVKLVESAGGLVQAGGSLRLSCPASGSTFPKYPMGWSRQEPGKERELVAAITWRGGSTYYADSVKGRFTISRDNAKNTVYLQMISLNPEDTAVYYCAAVPYYPSRMDYWGQGTQVTVSS | low polyreactivity
34 | QVQLVESGGGLVQAGGSLRISCAASGFTFRYYALGWYRQAPGKERELVAAILSSGGSTYYADSVKGRFTISRDNAKNTVYLQINSLKPVDTAVYYCNKVWDRRYDYWGQGTQVTVSS | high polyreactivity
35 | QVQLVESGGGLVQAGGSLRLSCAASGIIFRVYTMGWYRQAPGKERELVATIRTSGDSTYYADSVKGRFTISRDNAKNTVYLQMNSLKPEDTAVYYCAKRRNYWHYYWGQGTQVTVSS | high polyreactivity
36 | QVQLVESGGGLVQAGGSLRLSCAASGIIFDVYAMGWYRQAPGKERELVAAISKRGGRTYYADSVKGRFTISRDNAKNTVYLQMNSLKPEDTAVYYCAADGQYKHFDYWGQGTQVTVSS | high polyreactivity
37 | QVQLVESGGGLVQAGGSLRLSCAASGGTFYPYAMGWYRQAPGKERELVAAISASDDNTYYADSVKGRFTISRDNAKNTVYLQMNSLKPEDTAVYYCAKRSYFYPYGYWGQGTQVTVSS | high polyreactivity
38 | QVQLVESGGGLVQAGGSLRLSCAASGYTYGYNAMGSYRQAPGKERELVAAITKNGGSTYYADSVKGRFTISRDNAKNTVYLQMNSLKPEDTAVYYCAARIYYSRTFGYYYWGQGTQVTVSS | high polyreactivity
39 | QVQLVESCGGLVQTGGSLRLICAASRSNFDYYAMGWYRQAPWKETELVATNSYDFSTSYADSVKVLFTISRDNAKNTVFLQMKSLKPVDTAVYYCATDAGLYLEDAYEGPEQEFDYWGQGTQVTVSS | low polyreactivity
40 | QVQLVESGGGLVQAGGSLRLSCAASGSIFSTNAMGCYIQAPGKERELVAVITGIGGITYYADSVKGRFTISRDNAKNTVYVQMNSLKPEDTAVYYCAADPISEFYWGVKDRYDYWGQGTQVTVST | low polyreactivity
